System: MS2 coat protein
Assay: apparent KD of MS2 coat protein; designed switch direction (-1 OFF switch, 1 ON switch): -1; higher = weaker reporter binding
Outline: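 Apparent KD, taken as the median over clusters for each design, was obtained by curve-fitting normalised cluster fluorescence. Designed RNA switches had been transcribed on Illumina chips by stalled E. coli RNA polymerase and titrated with SNAP-549-labelled MS2 coat protein, doubling from 0.7 or 1.5 nM to 3 µM.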

[1] = Eterna round: R95, input ligand: FMN 200 uM
[2] = Eterna round: R95, input ligand: microRNA oligo, concentration not stated
[3] = Eterna round: R95, input ligand: none
[4] = input ligand: microRNA oligo, concentration not stated

Row | Sequence | apparent KD of MS2 coat protein [1] [nM] | apparent KD of MS2 coat protein [2] [nM] | apparent KD of MS2 coat protein [3] [nM] | apparent KD of MS2 coat protein (input ligand: FMN 200 uM) [nM] | apparent KD of MS2 coat protein (input ligand: none) [nM] | apparent KD of MS2 coat protein [4] [nM]
1 | AAGUACCGUCACGAUAGUGAUGGUACAACAGGCAGUGAAACAUGAGGAUCACCCAUGUCCUCAAUUGCUCGUCUUAU [Sensor 3 - 77] (puzzle: Sensor v3, turn-off variant 2) | 77.6 | 192 | 98.7 |  |  | 
2 | AAGGAUAGAGGAUAUGCAUAGAUACAGAUUCAUGUAGAACUACAUGAGGAUCACCCAUGUAGAAGGCUAUCCUA [Fiskers Ex 2 - 5] (puzzle: Exclusion 2) |  | 17.3 |  |  |  | 
3 | AACAAGUCAGGAUAUGCCCUGAUAGACUUGAGGAUCACCCAAGUAAGUCUAUCUGGCUAAGCAGAAGGGACAAAAG [Usrabe] (Eterna round: R97, puzzle: Exclusion 5) |  |  |  | 643 | 649 | 
4 | CUUGUUUAUGUAGGAUAUACAUGAGGAUCACCCAUAGAAGGACAUGAGGAUCACCCAUGUAUUGCGGUCUGCGUUCAGAUCGCA [salish99_ExNG1_r04_101] (Eterna round: R96, puzzle: Exclusion NG 1) |  |  |  | 337 | 335 | 298
5 | GGCCCGGGAGGAUAUACAUGAGGAUCACCCAUGUUGAAGUUGAAGAUCUUCGGCUUCGGUAGAAGGCCCGGGCC [-35, -32.8 kcal, 23% A, 3, 0] (Eterna round: R97, puzzle: Exclusion 3) |  |  |  | 18.2 | 13.6 | 
6 | AUAAGCUUUGAGAUCCUUAACAUGAGGAUCACCCAUGUUCGUCUUAUGAUGGUCUGAUCCCUGAGGAUCGGACCGUG [Mat - Sensor v3 - turn-off var 1 - JL Mod - D2] (puzzle: Sensor v3, turn-off variant 1) | 277 | 5.74 | 380 |  |  | 
7 | AGAAGUAGAAACCGAUCCUACAUGAGGAUCACCCAUGUAGCAAGACGUGCACGCGAAGCUCGUCAGACUACCAGAAG [solution 24] (Eterna round: R96, puzzle: Sensor v2, turn-off variant) |  |  |  | 462 | 345 | 288
8 | GGUUGGCGAGGAUAUACAUGAGGAUCACCCAUGUGAUCCUAAGGCUGAUCAAGCCUAUGUAGAAGGCGCAAAUC [salish99_ex3_r4_009] (Eterna round: R97, puzzle: Exclusion 3) |  |  |  | 49.7 | 260 | 
9 | GUGAGCAGACGGAGAUCCUACAUGAGGAUCACCCAUGUCUCACUAGCUUUUUGCUCGUCUUAUCCUCCUCUGUUCAC [Elimod 24 - Jieux - Sensor, turn-off variant 1] (Eterna round: R97, puzzle: Sensor, turn-off variant 1) |  |  |  | 21.8 | 21.6 | 
10 | GAUAGUGGAGGAUAUACAUGAGGAUCACCCAUGUGAAGUUGCGUAAGUGACCCUUCCUGUAGAAGGCCAAGCAA [Eternabot (Original) Solution 31] (Eterna round: R97, puzzle: Exclusion 3) |  |  |  | 256 | 31.9 | 
11 | CUUUUAAAGCAACAUCAGCACAUGAGGAUCACCCAUGUGGCGUCCCGACUGUGCACGAUUGCUCGUCUUGACUGUAU [Eternabot (L1) Solution 25] (Eterna round: R97, puzzle: Sensor, turn-off variant 1) |  |  |  | 179 | 185 | 
12 | AACUUCUGAGGAUAUACAUAGAUUUACAUGAGGAUCACCCAUGUUCCUCUUUGUAUAAAUGUAGAAGGCAGAAGAA [Mat - Exclusion 5 - JL Mod - D72] (Eterna round: R97, puzzle: Exclusion 5) |  |  |  | 349 | 203 | 
13 | GCGUGACAUGAGGAUCACCCAUGUGAGGAUAUCUGGAUAAUUUUUAUUUUAGAUAUCCAGAGAAGGCACAUGCU [Ex1-3: 2Z] (puzzle: Exclusion 1) |  | 62.4 |  |  |  | 
14 | AGAAAUGCCCAUGGCCGCAAGCCUUUUGCUUGUCUUACCACAUGAGGAUCACCCAUGUGACAUGGGCUCCUUAUAAU [Verileve] (puzzle: Sensor v3, turn-off variant 2) | 14 | 9.2 | 12.5 |  |  | 
15 | CUAUGUUAGCAGGAUAUGCCAUUAUUCUUUUUCGCAGAAGGGCUUACAUGAGGAUCACCCAUGUUACAUUUCUU [JR_E6_Sub086] (Eterna round: R96, puzzle: Exclusion 6) |  |  |  | 42.6 | 18.5 | 14.9
16 | CAGUACUGAGGAUAUACAUGAGGAUCACCCAUGUGUUCCAGCGAGGAAACUAGCAAAAGUAGAAGGCAGUACUG [salish99_ex3_r3_077] (Eterna round: R96, puzzle: Exclusion 3) |  |  |  | 242 | 18.5 | 15.6
17 | UGUAGGUCUACCUUGGUGGAUCUGCAUUUUUGCAGGUGUACAUGAGGAUCACCCAUGUCCUCAUUUGCUCGUCUUAU [JL turnoff v2 99.31] (puzzle: Sensor v3, turn-off variant 2) | 467 | 560 | 542 |  |  | 

Row | Sequence | apparent KD of MS2 coat protein [1] [nM] | apparent KD of MS2 coat protein [2] [nM] | apparent KD of MS2 coat protein [3] [nM] | apparent KD of MS2 coat protein (input ligand: FMN 200 uM) [nM] | apparent KD of MS2 coat protein (input ligand: none) [nM] | apparent KD of MS2 coat protein [4] [nM]
18 | GCUCAACAUGAGGAUCACCCAUGUCAGGAUAUGCGAAUUUCAUCAAAAGAUGAAAUUUGCAGAAGGGACUGAGC [Omei Ex1 A31] (Eterna round: R97, puzzle: Exclusion 1) |  |  |  | 27.2 | 22 | 
19 | AAGUCGACGGUGAGGAUAUAGGUCGAACGACAGAUCUAGAAGGUACAUGAGGAUCACCCAUGUGGGUAACGUCG [Brourd's EX4 #35] (Eterna round: R97, puzzle: Brourd's mod of Exclusion 4) |  |  |  | 36.8 | 32.4 | 
20 | CAGGAUAGAGGAUAUACAUAGAUACAGAUUCAUAUAAUCCUACAUGAGGAUCACCCAUGUAGAAGGCUAUCCUG [Fiskers Ex 2 - 25] (puzzle: Exclusion 2) |  | 14.5 |  |  |  | 
21 | AUUAUACAUGUAGGAUAUCUGCACGUGUAGUGCAGAGAAGGACAUGAGGAUCACCCAUGUAGAUCAAUAAUAAUUAAUUUAAUU [ENG1/6-B3] (Eterna round: R96, puzzle: Exclusion NG 1) |  |  |  | 184 | 104 | 96.8
22 | GUCCUGGUAGGAUAUGAGGUUCACGACAUGAGGAUCACCCAUGUGGCCGUGUCUCAUACUUCAGAAGGACCGACAG [Eternabot (L2) Solution 5] (Eterna round: R97, puzzle: Exclusion 5) |  |  |  | 16.1 | 15.7 | 
23 | AGUAACUAUCACGAAAGUGAUAGUUACAAACAAGUGGAAACAUGAGGAUCACCCAUGUCCUCAUUUGCUCGUCUUAU [Sensor 3 - 6] (puzzle: Sensor v3, turn-off variant 2) | 574 | 556 | 503 |  |  | 
24 | ACAUGAGGAUCACCCAUGUCUGGCUGGUCUGCUCCGGCUGUUGAGGAUAUAGUCCGGUGUUCGCGCUAGAAGGUGAGGGCUGGA [Aenatbe mod 41] (Eterna round: R96, puzzle: Exclusion NG 3) |  |  |  | 107 | 77.3 | 49.5
25 | AUGCUCCGUGUAGGAUAUCGCCGUAUUAUUCGGCGAGAAGGACAUGAGGAUCACCCAUGUAUGUUAUUAUCACGUGUGGCGCGC [Design 47] (Eterna round: R96, puzzle: Exclusion NG 1) |  |  |  | 41.8 | 21.8 | 13.6
26 | GAUUAUGCGAGCUUUAGGGACAUGAGGAUCACCCAUGUUCGUCUUAUUGGUCUGAAUGCACUAACAUACCUAAAUCU [JMF 24] (puzzle: Sensor v3, turn-off variant 1) | 26.2 | 37 | 24.8 |  |  | 
27 | GUCGUGCGGCUUUGCUGUGCGAGUACAUGAGGAUCACCCAUGUAGGAUAUGGUACGCUUUGCGUGCCAGAAGGGCGUGCGUUGG [salish99_ExNG3_r04_007] (Eterna round: R96, puzzle: Exclusion NG 3) |  |  |  | 38 | 35.4 | 28.6
28 | CGAUGAGGUGUGAGGAUAUCGUGUUCGAAAGAACGUGAGAAGGCACAUGAGGAUCACCCAUGUUAACCUUGUCG [Omei Ex4B A13] (Eterna round: R97, puzzle: Brourd's mod of Exclusion 4) |  |  |  | 11.5 | 13.2 | 
29 | UAAUAUCUGUAGGAUAUCAGUGGAGAACACGUAUGAGAAGGGCAGACAUGAGGAUCACCCAUGUAUAGGGUCCG [BotMod 6 - Jieux - Exclusion 6] (Eterna round: R97, puzzle: Exclusion 6) |  |  |  | 59.1 | 20.2 | 
30 | GGUGAAGCAGGAUAUGUAUCGAUAUACAUGAGGAUCACCCAUGUCAUGUUUGAAUCGCAUAUAGAAGGGCUUCACC [Exclusion 5 (FMN-MS2 slide)] (Eterna round: R97, puzzle: Exclusion 5) |  |  |  | 58.1 | 20.8 | 
31 | UCUUCAGCCAAGUUCACAUACAUGAGGAUCACCCAUGUUGCGUAACGCAUGCAUAUCCUAGUUGCUCGUUCUACAGU [Eternabot (L1) Solution 6] (Eterna round: R97, puzzle: Sensor, turn-off variant 1) |  |  |  | 26.4 | 33.1 | 
32 | UUAUCUACUGAGGAUAUUAUAUCACCCGACUGAUAAGAAGGCAGUACAUGAGGAUCACCCAUGUGGGUAGCCAU [Polaris10] (Eterna round: R97, puzzle: Exclusion 6) |  |  |  | 43 | 32.6 | 
33 | GAUUAACAUGAGGAUCACCCAUGUGAGGAUAUGGACUUGCCCACUUAACCAUUAGAGUCUAGAAGGCGCAUCUG [1986#25] (Eterna round: R97, puzzle: Exclusion 1) |  |  |  | 32.9 | 29.8 | 

Source: the supplement of paper PMC9170038
